Experimental data reported in the supplement of paper PMC10567573.

B1: BTBD10 (parent)
chain: DRKLHSRPRKLYKHSSTSSRIAKG

Variants of: B1
Assay: protein stability index of a GFP-peptide fusion (GPS, HEK-293T) (PSI 1-6); higher = more stable
Settings: c terminus: a fixed tail appended
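Also: lentivirally expressed fusions sorted by FACS into six bins by GFP to DsRed ratio, PSI derived from sequencing read proportions per bin multiplied by bin number.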

Row | Variant | protein stability index
1 | DRKLHSRPRKLYKHSSTSSRIAKN [G24N] | 4.3
2 | DRKLHSRPRKLYKHSSTSSRIAKR [G24R] | 4
3 | DRKLHSRPRKLYKHSSASSRIAKG [T17A] | 3.7
4 | DRKLHSRPRKLYKHSSCSSRIAKG [T17C] | 3.35
5 | DRKLHSRPRKLYKHSSDSSRIAKG [T17D] | 4.54
6 | DRKLHSRPRKLYKHSSFSSRIAKG [T17F] | 3.24
7 | DRKLHSRPRKLYKHSSSSSRIAKG [T17S] | 3.86
8 | DRKLHSRPRKLYKHSSRSSRIAKG [T17R] | 4.45
9 | DRKLHSRPRKLYKHSSYSSRIAKG [T17Y] | 3.08
10 | DRKLHSRPRKLYKHSSWSSRIAKG [T17W] | 2.2
11 | DRKLHSRPRKLYKHSSPSSRIAKG [T17P] | 3.88
12 | DRKLHSRPRKLYKHSSGSSRIAKG [T17G] | 2.9
13 | DRKLHSRPRKLYKHSSISSRIAKG [T17I] | 3.56
14 | DRKLHSRPRKLYKHSSESSRIAKG [T17E] | 4.41
15 | DRKLHSRPRKLYKHSSVSSRIAKG [T17V] | 3.81
16 | DRKLHSRPRKLYKHSSNSSRIAKG [T17N] | 3.18
17 | DRKLHSRPRKLYKHSSQSSRIAKG [T17Q] | 3.98
18 | DRKLHSRPRKLYKHSSLSSRIAKG [T17L] | 4.48
19 | DRKLHSRPRKLYKHSSMSSRIAKG [T17M] | 3.28
20 | DRKLHSRPRKLYKHSSKSSRIAKG [T17K] | 4.33
21 | DRKLHSRPRKLYKHSSHSSRIAKG [T17H] | 3.63
22 | DRKLHSRPRKLYKHSSTSSRIASG [K23S] | 3.41
23 | DRKLHSRPRKLYKHSSTSSRIAQG [K23Q] | 4.1
24 | DRKLHSRPRKLYKHSSTSSRIAMG [K23M] | 2.89

Row | Variant | protein stability index
25 | DRKLHSRPRKLYKHSSTSSRIACG [K23C] | 3.17
26 | DRKLHSRPRKLYKHSSTSSRIAWG [K23W] | 3.04
27 | DRKLHSRPRKLYKHSSTSSRIATG [K23T] | 3.58
28 | DRKLHSRPRKLYKHSSTSSRIAVG [K23V] | 3.31
29 | DRKLHSRPRKLYKHSSTSSRIAYG [K23Y] | 2.98
30 | DRKLHSRPRKLYKHSSTSSRIAPG [K23P] | 3.44
31 | DRKLHSRPRKLYKHSSTSSRIAGG [K23G] | 4.08
32 | DRKLHSRPRKLYKHSSTSSRIARG [K23R] | 3.27
33 | DRKLHSRPRKLYKHSSTSSRIALG [K23L] | 3
34 | DRKLHSRPRKLYKHSSTSSRIAHG [K23H] | 3.41
35 | DRKLHSRPRKLYKHSSTSSRIAIG [K23I] | 2.92
36 | DRKLHSRPRKLYKHSSTSSRIAFG [K23F] | 3.56
37 | DRKLHSRPRKLYKHSSTSSRIADG [K23D] | 3.78
38 | DRKLHSRPRKLYKHSSTSSRIAEG [K23E] | 4.08
39 | DRKLHSRPRKLYKHSSTSSRIAAG [K23A] | 3.72
40 | DRKLHSRPRKLYKHSSTSSRIANG [K23N] | 4.61
41 | DRKLHSRPRKLYKHSSTSSRQAKG [I21Q] | 3.36
42 | DRKLHSRPRKLYKHSSTSSRMAKG [I21M] | 3.77
43 | DRKLHSRPRKLYKHSSTSSRDAKG [I21D] | 4.6
44 | DRKLHSRPRKLYKHSSTSSRVAKG [I21V] | 3.74
45 | DRKLHSRPRKLYKHSSTSSRYAKG [I21Y] | 4.48
46 | DRKLHSRPRKLYKHSSTSSRAAKG [I21A] | 3.5
47 | DRKLHSRPRKLYKHSSTSSRNAKG [I21N] | 4.03
48 | DRKLHSRPRKLYKHSSTSSRFAKG [I21F] | 3.65

Row | Variant | protein stability index
49 | DRKLHSRPRKLYKHSSTSSRGAKG [I21G] | 4.71
50 | DRKLHSRPRKLYKHSSTSSREAKG [I21E] | 4.33
51 | DRKLHSRPRKLYKHSSTSSRWAKG [I21W] | 3.33
52 | DRKLHSRPRKLYKHSSTSSRRAKG [I21R] | 3.95
53 | DRKLHSRPRKLYKHSSTSSRSAKG [I21S] | 4.59
54 | DRKLHSRPRKLYKHSSTSSRKAKG [I21K] | 4.28
55 | DRKLHSRPRKLYKHSSTSSRPAKG [I21P] | 4.16
56 | DRKLHSRPRKLYKHSSTSSRCAKG [I21C] | 3.88
57 | DRKLHSRPRKLYKHSSTSSRHAKG [I21H] | 4.04
58 | DRKLHSRPRKLYKHSSTSSRTAKG [I21T] | 4.18
59 | DRKLHSRPRKLYKHSSTSSRLAKG [I21L] | 3.96
60 | DRKLHSRPRKLYKHMSTSSRIAKG [S15M] | 3.1
61 | DRKLHSRPRKLYKHISTSSRIAKG [S15I] | 3.43
62 | DRKLHSRPRKLYKHTSTSSRIAKG [S15T] | 4.17
63 | DRKLHSRPRKLYKHRSTSSRIAKG [S15R] | 4.12
64 | DRKLHSRPRKLYKHNSTSSRIAKG [S15N] | 3.66
65 | DRKLHSRPRKLYKHLSTSSRIAKG [S15L] | 3.71
66 | DRKLHSRPRKLYKHHSTSSRIAKG [S15H] | 3.25
67 | DRKLHSRPRKLYKHPSTSSRIAKG [S15P] | 4.05
68 | DRKLHSRPRKLYKHFSTSSRIAKG [S15F] | 3
69 | DRKLHSRPRKLYKHESTSSRIAKG [S15E] | 4.06
70 | DRKLHSRPRKLYKHWSTSSRIAKG [S15W] | 3.1
71 | DRKLHSRPRKLYKHKSTSSRIAKG [S15K] | 3.59
72 | DRKLHSRPRKLYKHQSTSSRIAKG [S15Q] | 3.85

Row | Variant | protein stability index
73 | DRKLHSRPRKLYKHGSTSSRIAKG [S15G] | 4.49
74 | DRKLHSRPRKLYKHVSTSSRIAKG [S15V] | 3.88
75 | DRKLHSRPRKLYKHYSTSSRIAKG [S15Y] | 3.67
76 | DRKLHSRPRKLYKHSSTSSRIGKG [A22G] | 3.91
77 | DRKLHSRPRKLYKHSSTSSRIWKG [A22W] | 3.47
78 | DRKLHSRPRKLYKHSSTSSRIIKG [A22I] | 3.58
79 | DRKLHSRPRKLYKHSSTSSRICKG [A22C] | 3.11
80 | DRKLHSRPRKLYKHSSTSSRIYKG [A22Y] | 3.7
81 | DRKLHSRPRKLYKHSSTSSRISKG [A22S] | 4.15
82 | DRKLHSRPRKLYKHSSTSSRIKKG [A22K] | 3.68
83 | DRKLHSRPRKLYKHSSTSSRIFKG [A22F] | 2.99
84 | DRKLHSRPRKLYKHSSTSSRILKG [A22L] | 3.03
85 | DRKLHSRPRKLYKHSSTSSRITKG [A22T] | 3.55
86 | DRKLHSRPRKLYKHSSTSSRIHKG [A22H] | 3.58
87 | DRKLHSRPRKLYKHSSTSSRIDKG [A22D] | 4.01
88 | DRKLHSRPRKLYKHSSTSSRIEKG [A22E] | 3.67
89 | DRKLHSRPRKLYKHSSTSSRIVKG [A22V] | 3.71
90 | DRKLHSRPRKLYKHSSTSSRIPKG [A22P] | 3.99
91 | DRKLHSRPRKLYKHSSTSSRIQKG [A22Q] | 4.15
92 | DRKLHSRPRKLYKHSSTSSRIMKG [A22M] | 3.44
93 | DRKLHSRPRKLYKHSSTSSRIRKG [A22R] | 4.5
94 | DRKLHSRPRKLYKHSSTSSRINKG [A22N] | 3.34
